Where a SMILES comes first, the peptide text is derived from it. Bridges are numbered along the chain shown (N, C = ends).
B1: Syn-Ang-VEGFR-11: fused protein synergibody SAITAng-2-3 × DTN6VEGFR-2-1, peptide at C-terminal of heavy chain (protein)
heavy (part 1 of 2): DVQLVESGGGLVQPGGSRKLSCAASGFTFSSFGMHWVRQAPEKGLEWVAYISSDSSTIYYADTVKGRFTISRDNPKNTLFLQMTSLRSEDTAMYYCAREGGYDDYYAMDYWGQGTSVTVSS
heavy (part 2 of 2): TGSDDLCYTFPCMHY
light: DIQMTQSPASQSASLGESVTITCLASQTIGTWLAWYQQKPGKSPQLLIYAATSLADGVPSRFSGSGSGTKFSFKISSLQAEDFVSYYCQQLYSIPLTFGGGTKLEIK
modifications: left off: a dimerising Fc or GST
notes: fused protein synergibody SAITAng-2-3 × DTN6VEGFR-2-1, peptide at C-terminal of heavy chain
B2: Syn-Ang-VEGFR-12: fused protein synergibody SAITAng-2-3 × DTN8VEGFR-2-2, peptide at C-terminal of heavy chain (protein)
heavy (part 1 of 2): DVQLVESGGGLVQPGGSRKLSCAASGFTFSSFGMHWVRQAPEKGLEWVAYISSDSSTIYYADTVKGRFTISRDNPKNTLFLQMTSLRSEDTAMYYCAREGGYDDYYAMDYWGQGTSVTVSS
heavy (part 2 of 2): EAGKETCGYEWQYCPRP
light: DIQMTQSPASQSASLGESVTITCLASQTIGTWLAWYQQKPGKSPQLLIYAATSLADGVPSRFSGSGSGTKFSFKISSLQAEDFVSYYCQQLYSIPLTFGGGTKLEIK
modifications: left off: a dimerising Fc or GST
notes: fused protein synergibody SAITAng-2-3 × DTN8VEGFR-2-2, peptide at C-terminal of heavy chain
B3: Syn-Ang-VEGFR-6: fused protein synergibody SAITAng-2-2 × DTN6VEGFR-2-1, peptide at C-terminal of heavy chain (protein)
heavy (part 1 of 2): QVQLQQSGPELVKPGASVKMSCKASGYTFTDYVISWVKQRTGQGLEWIGEIYPGSGSTYYNEKFKGKASLTADKSSNTAYMQLSSLTSADSAVYFCVRSRGDYYAMDYWGQGTSVTVSS
heavy (part 2 of 2): TGSDDLCYTFPCMHY
light: DIQMTQSPSSLSASLGGKVTITCKASQDINNYITWYQHKPGKGPRLLIHYTSTLQPGIPSRFSGSGSGRDYSFSISNLEPEDIATYYCLQYDNLLTFGGGTKLEIK
modifications: left off: a dimerising Fc or GST
notes: fused protein synergibody SAITAng-2-2 × DTN6VEGFR-2-1, peptide at C-terminal of heavy chain
B4: Syn-Ang-VEGFR-7: fused protein synergibody SAITAng-2-2 × DTN8VEGFR-2-2, peptide at C-terminal of heavy chain (protein)
heavy (part 1 of 2): QVQLQQSGPELVKPGASVKMSCKASGYTFTDYVISWVKQRTGQGLEWIGEIYPGSGSTYYNEKFKGKASLTADKSSNTAYMQLSSLTSADSAVYFCVRSRGDYYAMDYWGQGTSVTVSS
heavy (part 2 of 2): EAGKETCGYEWQYCPRP
light: DIQMTQSPSSLSASLGGKVTITCKASQDINNYITWYQHKPGKGPRLLIHYTSTLQPGIPSRFSGSGSGRDYSFSISNLEPEDIATYYCLQYDNLLTFGGGTKLEIK
modifications: left off: a dimerising Fc or GST
notes: fused protein synergibody SAITAng-2-2 × DTN8VEGFR-2-2, peptide at C-terminal of heavy chain
B5: Syn-Ang-VEGFR-10: fused protein synergibody SAITAng-2-2 × DTN11VEGFR-2-5, peptide at C-terminal of heavy chain (protein)
heavy (part 1 of 2): QVQLQQSGPELVKPGASVKMSCKASGYTFTDYVISWVKQRTGQGLEWIGEIYPGSGSTYYNEKFKGKASLTADKSSNTAYMQLSSLTSADSAVYFCVRSRGDYYAMDYWGQGTSVTVSS
heavy (part 2 of 2): PGSQGYCHLNMRYQWICDSE
light: DIQMTQSPSSLSASLGGKVTITCKASQDINNYITWYQHKPGKGPRLLIHYTSTLQPGIPSRFSGSGSGRDYSFSISNLEPEDIATYYCLQYDNLLTFGGGTKLEIK
modifications: left off: a dimerising Fc or GST
notes: fused protein synergibody SAITAng-2-2 × DTN11VEGFR-2-5, peptide at C-terminal of heavy chain
B6: Syn-Ang-VEGFR-8: fused protein synergibody SAITAng-2-2 × DTN9VEGFR-2-3, peptide at C-terminal of heavy chain (protein)
heavy (part 1 of 2): QVQLQQSGPELVKPGASVKMSCKASGYTFTDYVISWVKQRTGQGLEWIGEIYPGSGSTYYNEKFKGKASLTADKSSNTAYMQLSSLTSADSAVYFCVRSRGDYYAMDYWGQGTSVTVSS
heavy (part 2 of 2): EAGAYWCKAWGLSPCLVT
light: DIQMTQSPSSLSASLGGKVTITCKASQDINNYITWYQHKPGKGPRLLIHYTSTLQPGIPSRFSGSGSGRDYSFSISNLEPEDIATYYCLQYDNLLTFGGGTKLEIK
modifications: left off: a dimerising Fc or GST
notes: fused protein synergibody SAITAng-2-2 × DTN9VEGFR-2-3, peptide at C-terminal of heavy chain
B7: Syn-Ang-VEGFR-9: fused protein synergibody SAITAng-2-2 × DTN10VEGFR-2-4, peptide at C-terminal of heavy chain (protein)
heavy (part 1 of 2): QVQLQQSGPELVKPGASVKMSCKASGYTFTDYVISWVKQRTGQGLEWIGEIYPGSGSTYYNEKFKGKASLTADKSSNTAYMQLSSLTSADSAVYFCVRSRGDYYAMDYWGQGTSVTVSS
heavy (part 2 of 2): TGSGRMCDGSGPPTNCWFT
light: DIQMTQSPSSLSASLGGKVTITCKASQDINNYITWYQHKPGKGPRLLIHYTSTLQPGIPSRFSGSGSGRDYSFSISNLEPEDIATYYCLQYDNLLTFGGGTKLEIK
modifications: left off: a dimerising Fc or GST
notes: fused protein synergibody SAITAng-2-2 × DTN10VEGFR-2-4, peptide at C-terminal of heavy chain

System: HUVEC
Experiment: Cell-based functional assay, endothelial cell tube formation (BD BioCoat Angiogenesis System)
Design: species or system human
Conditions: 18 hours, unrelated control group 12,227 ± 1,232; for Length of the entire tube of HUVEC (2 × 10^4 cells) (pixels): 5 μM synthesized peptide; for Length of entire tube of HUVEC (2 × 10^4 cells) (pixels): 5 μM fused protein synergibody
Procedure: Chimeric antibodies may be screened by functional assays such as cell-based assay for inhibition activity. In this example, BD BioCoat™ Angiogenesis System-Endothelial Cell Tube Formation (BD Biosciences) is used. BD Falcon 96-well Black/Clear plate coated with BD Matrigel Matrix that had been stored at −20° C. is slowly melted at 4° C. for 6 hours, and the mat cover of the plate is removed inside a sterile clean bench. Then it is left at 37° C. , 5% CO2 for 30 minutes so that the Matrigel™ Matrix would form polymers. Then it is made into a suspension by treating HUVEC, cultured on a petridish containing EGM-2 MV (Lonza) medium added with 10% fetal bovine serum to 70 to 80% confluence, with 0.5% Trypsin-EDTA (Gibco). Then it is resuspended in a culture medium containing 10% fetal bovine serum to a cell concentration of 4×10^5 cells/ml. At this time, 5 μM of each anti-Ang-2 chimeric antibodies expressed and purified in Section 5 above are also added and resuspended. Then 50 μl (about 2×10^4 cells) of each of the suspension is added to each well of the plate and incubated at 37° C. , 5% CO2 for 18 hours. Then the medium is removed and each well is washed twice with 100 μl of Hanks' balanced salt solution (HBSS, Invitrogen) ensuring that the tubes of the cells formed on BD Matrigel™ Matrix are not damaged. 50 μl of calcein AM (BD sciences) dissolved in HBSS at the concentration of 8 μg/ml is added to each well. The plate is then left to react at 37° C., 5% CO2 for 30 minutes and the calcein AM (BD sciences) solution is removed and washed twice with HBSS. Lastly, an image of the length of the entire tube of HUVEC formed on BD Matrigel™ Matrix is obtained on a fluorescent microscope and analyzed by using MetaMorph® software (Universal Imaging Corporation™, http://www.moleculardevices.com).
The peptides synthesized in Section 6A above are screened by cell-based functional assay for inhibition activity. The method described in Example 1, Section 7 is used, except that 5 μM synthesized peptides are added instead of anti-Ang-2 antibodies.
The fused protein synergibodies prepared in Section 1 above are screened using cell-based functional assay for inhibition activity. The method described in Example 1, Section 7 is used, except that, in this example, 5 μM of fused protein synergibodies are added instead of anti-Ang-2 antibodies.

Molecule	Length of the entire tube of HUVEC (2 × 10^4 cells) (pixels)	Length of entire tube of HUVEC (2 × 10^4 cells) (pixels)
C[C@H](NC(=O)[C@@H](N)CCC(=O)O)C(=O)NCC(=O)N[C@@H](CCCCN)C(=O)N[C@@H](CCC(=O)O)C(=O)N[C@H](C(=O)N[C@H]1CSSC[C@@H](C(=O)N2CCC[C@H]2C(=O)N[C@@H](CCCNC(=N)N)C(=O)N2CCC[C@H]2C(=O)O)NC(=O)[C@H](Cc2ccc(O)cc2)NC(=O)[C@H](CCC(N)=O)NC(=O)[C@H](Cc2c[nH]c3ccccc23)NC(=O)[C@H](CCC(=O)O)NC(=O)[C@H](Cc2ccc(O)cc2)NC(=O)CNC1=O)[C@@H](C)O [DTN8VEGFR-2-2] (H-EAGKETCGYEWQYCPRP-OH; disulfide 7-14; N-terminus and C-terminus assumed)	10,891 ± 1,014 pixels	
CC(C)C[C@@H]1NC(=O)CNC(=O)[C@H](Cc2c[nH]c3ccccc23)NC(=O)[C@H](C)NC(=O)[C@H](CCCCN)NC(=O)[C@@H](NC(=O)[C@H](Cc2c[nH]c3ccccc23)NC(=O)[C@H](Cc2ccc(O)cc2)NC(=O)[C@H](C)NC(=O)CNC(=O)[C@H](C)NC(=O)[C@@H](N)CCC(=O)O)CSSC[C@@H](C(=O)N[C@@H](CC(C)C)C(=O)N[C@H](C(=O)N[C@H](C(=O)O)[C@@H](C)O)C(C)C)NC(=O)[C@@H]2CCCN2C(=O)[C@H](CO)NC1=O [DTN9VEGFR-2-3] (H-EAGAYWCKAWGLSPCLVT-OH; disulfide 7-15; N-terminus and C-terminus assumed)	12,101 ± 869 pixels	
CSCC[C@H](NC(=O)[C@@H]1CSSC[C@H](NC(=O)[C@H](CC(C)C)NC(=O)[C@H](CC(=O)O)NC(=O)[C@H](CC(=O)O)NC(=O)[C@H](CO)NC(=O)CNC(=O)[C@@H](N)[C@@H](C)O)C(=O)N[C@@H](Cc2ccc(O)cc2)C(=O)N[C@@H]([C@@H](C)O)C(=O)N[C@@H](Cc2ccccc2)C(=O)N2CCC[C@H]2C(=O)N1)C(=O)N[C@@H](Cc1c[nH]cn1)C(=O)N[C@@H](Cc1ccc(O)cc1)C(=O)O [DTN6VEGFR-2-1] (H-TGSDDLCYTFPCMHY-OH; disulfide 7-12; N-terminus and C-terminus assumed)	11,093 ± 1,308 pixels	
CSCC[C@H](NC(=O)[C@H](CCCNC(=N)N)NC(=O)CNC(=O)[C@H](CO)NC(=O)CNC(=O)[C@@H](N)[C@@H](C)O)C(=O)N[C@H]1CSSC[C@@H](C(=O)N[C@@H](Cc2c[nH]c3ccccc23)C(=O)N[C@@H](Cc2ccccc2)C(=O)N[C@H](C(=O)O)[C@@H](C)O)NC(=O)[C@H](CC(N)=O)NC(=O)[C@H]([C@@H](C)O)NC(=O)[C@@H]2CCCN2C(=O)[C@@H]2CCCN2C(=O)CNC(=O)[C@H](CO)NC(=O)CNC(=O)[C@H](CC(=O)O)NC1=O [DTN10VEGFR-2-4] (H-TGSGRMCDGSGPPTNCWFT-OH; disulfide 7-16; N-terminus and C-terminus assumed)	10,773 ± 992 pixels	
CC[C@H](C)[C@@H]1NC(=O)[C@H](Cc2c[nH]c3ccccc23)NC(=O)[C@H](CCC(N)=O)NC(=O)[C@H](Cc2ccc(O)cc2)NC(=O)[C@H](CCCNC(=N)N)NC(=O)[C@H](CCSC)NC(=O)[C@H](CC(N)=O)NC(=O)[C@H](CC(C)C)NC(=O)[C@H](Cc2c[nH]cn2)NC(=O)[C@@H](NC(=O)[C@H](Cc2ccc(O)cc2)NC(=O)CNC(=O)[C@H](CCC(N)=O)NC(=O)[C@H](CO)NC(=O)CNC(=O)[C@@H]2CCCN2)CSSC[C@@H](C(=O)N[C@@H](CC(=O)O)C(=O)N[C@@H](CO)C(=O)N[C@@H](CCC(=O)O)C(=O)O)NC1=O [DTN11VEGFR-2-5] (H-PGSQGYCHLNMRYQWICDSE-OH; disulfide 7-17; N-terminus and C-terminus assumed)	11,896 ± 1,159 pixels	
B1		3,925 ± 675 pixels
B2		3,899 ± 923 pixels
B3		6,157 ± 1,141 pixels
B4		5,935 ± 995 pixels
B5		5,898 ± 1,037 pixels
B6		6,244 ± 935 pixels
B7		6,055 ± 779 pixels

From patent US20110076723A1, “ANTIBODY-PEPTIDE FUSED SYNERGIBODY” (SAMSUNG ELECTRONICS CO., LTD., priority 2008, published 2011)
